US20260209320A1 (ALCHEMAB THERAPEUTICS, published 2026)
Where no end group is shown, it is not given here.

T1: biotinylated GYSLPQPQPPPPPPPPPP peptide (also: biotinylated, position not given here)
T1 construct: also called HTT exon1 in the form of biotinylated peptide
T1 peptide: GYSLPQPQPPPPPPPPPP

T2: human lysozyme (human, UniProt P61626 19-148)
T2 sequence (looked up): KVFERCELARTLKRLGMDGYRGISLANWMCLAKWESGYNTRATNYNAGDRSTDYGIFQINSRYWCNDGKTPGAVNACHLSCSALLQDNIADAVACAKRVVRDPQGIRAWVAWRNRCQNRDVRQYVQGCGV


Columns and labels:
[1] = target: T3, Mutant Human HTT Exon 1 48Q (GST) (human); assay: HTT sandwich ELISA
T3 construct: recombinant His- and GST-tagged fusion; also called HTT Exon 1 Q48; 48Q HTT Exon-1
T3 sequence (chain, as listed by the source mutant limits assumed): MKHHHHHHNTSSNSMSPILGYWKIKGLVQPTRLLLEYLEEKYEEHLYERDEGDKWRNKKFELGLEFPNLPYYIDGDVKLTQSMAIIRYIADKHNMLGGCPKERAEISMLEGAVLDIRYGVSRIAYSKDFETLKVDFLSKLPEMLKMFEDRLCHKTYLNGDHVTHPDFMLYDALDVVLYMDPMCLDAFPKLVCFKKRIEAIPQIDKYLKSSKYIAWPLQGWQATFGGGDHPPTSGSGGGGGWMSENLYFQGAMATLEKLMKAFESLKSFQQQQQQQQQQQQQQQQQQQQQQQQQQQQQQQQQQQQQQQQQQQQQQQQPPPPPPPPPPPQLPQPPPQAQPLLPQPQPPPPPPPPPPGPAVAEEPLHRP

[2] = target: T1, biotinylated GYSLPQPQPPPPPPPPPP peptide; assay: BLI (Octet), biotinylated peptide on streptavidin biosensor
[3] = target: T3, Mutant Human HTT Exon 1 48Q (GST); assay: HTT sandwich ELISA, experiment 1 (133 nM starting concentration)
[4] = target: T3, Mutant Human HTT Exon 1 48Q (GST); assay: HTT sandwich ELISA, experiment 2 (400 nM starting concentration)
[5] = target: T3, Mutant Human HTT Exon 1 48Q (GST); assay: ELISA
[6] = target: T3, Mutant Human HTT Exon 1 48Q (GST); assay: HTT sandwich ELISA; remark: listed apart in the source
[7] = target: T2, human lysozyme; assay: direct ELISA

| Binder | binding result [2] | EC50 [3] [nM] | EC50 [4] [nM] | also measured |
| --- | --- | --- | --- | --- |
| ATL_0006184 (antibody, V domains shown, HD patient (ENBB) HCDR3 in ATL5901 VH, ATL5901 VL; also called ATL_6184; ATL6184) VH: EVQLVESGGGLVKPGGSLRLSCAASGFTFNKAWMSWVRQAPGKGLEWVGRIKSGIDAGTTDYAAPVKGRFTISRDDSKATLYLQMNSLKTEDTAVYYCTPPPYYYYGLDVWGQGTTVTVSS VL: QSALTQPASVSGSPGQSITISCTGTSSDVGGYKLVSWYQQHPGRAPKLMIYEVSKRPSGVSSRFSGSKSGSTASLTISGLQAEDEADYYCSSYAGSSVVFGGGTKLTVL | – | – | – | EC50 [1]: 10.1 nM |
| ATL_0006186 (antibody, V domains shown, HD patient (ENBB) HCDR3 in ATL5901 VH, ATL5901 VL; also called ATL_6186; ATL6186) VH: EVQLVESGGGLVKPGGSLRLSCAASGFTFNKAWMSWVRQAPGKGLEWVGRIKSGIDAGTTDYAAPVKGRFTISRDDSKATLYLQMNSLKTEDTAVYYCTPPPYYYYGLNVWGQGTTVTVSS VL: QSALTQPASVSGSPGQSITISCTGTSSDVGGYKLVSWYQQHPGRAPKLMIYEVSKRPSGVSSRFSGSKSGSTASLTISGLQAEDEADYYCSSYAGSSVVFGGGTKLTVL | – | – | – | EC50 [1]: 11.1 nM |
| ATL_0006195 (antibody, V domains shown, expressed in IgG1 format; also called ATL_6195) VH: EVQLVESGGGLVKPGGSLRLSCAASGFTFNKAWMSWVRQAPGKGLEWVGRIKSGIDAGTTDYAAPVKGRFTISRDDSKNTLYLQMNSLKTEDTAVYYCTPPPYYYYYGLDVWGQGTTVTVSS VL: QSALTQPRSVSGSPGQSVTISCTGTSSDVGSYNLVSWYQQHPGKAPKLMIYEVNKRPSGVPDRFSGSKSGATASLTISGLQAEDEADYYCGSYAGTANVFGTGTKVTVL | binds | 21.1 | 14.7 | – |
| ATL_0005334 (antibody, V domains shown, human IgG1; also called ATL_5334) VH: EVQLVESGGGLVKPGGSLRLSCAASGFTFNKAWMNWVRQAPGKGLEWVGRIKSGIDGGTTDYAAPVQGRFTISRDDSKNTVYLQMNSLNTEDTAVYYCIPPPYYYYYGLDVWGQGTTVTVSS VL: QSALTQPASVSGSPGQSITISCTGTSSDVGGYKLVSWYQQHPGRAPKLMIYEVSKRPSGVSSRFSGSKSGSTASLTISGLQAEDEADYYCCSYAGSSVVFGGGTKLTVL | – | – | – | binding result [5]: binds |
| ATL_0006183 (antibody, V domains shown, HD patient (ENBB) HCDR3 in ATL5895 VH, ATL5895 VL; also called ATL_6183; ATL6183) VH: EVQLVESGGGLVKPGGSLRLSCAASGFTFNKAWMSWVRQAPGKGLEWVGRIKSGIDAGTTDYAAPVKGRFTISRDDSKNTLYLQMNSLKTEDTAVYYCTPPPYYYYGLDVWGQGTTVTVSS VL: QSALTQPRSVSGSPGQSVTISCTGTSSDVGSYNLVSWYQQHPGKAPKLMIYEVNKRPSGVPDRFSGSKSGATASLTISGLQAEDEADYYCGSYAGTANVFGTGTKVTVL | – | – | – | EC50 [1]: 9.2 nM |
| ATL_0006194 (antibody, V domains shown, expressed in IgG1 format; also called ATL_6194; ATL6194) VH: EVQLVESGGGLVKPGGSLRLSCAASGFTFNKAWMSWVRQAPGKGLEWVGRIKSGIDAGTTDYAAPVKGRFTISRDDSKNTLYLQMNSLKTEDTAVYYCVPPPYYYYYGLDVWGQGTTVTVSS VL: QSALTQPRSVSGSPGQSVTISCTGTSSDVGSYNLVSWYQQHPGKAPKLMIYEVNKRPSGVPDRFSGSKSGATASLTISGLQAEDEADYYCVSYAGTANVFGTGTKVTVL | binds | 19.8 | 14 | – |
| ATL_0006185 (antibody, V domains shown, HD patient (ENBB) HCDR3 in ATL5895 VH, ATL5895 VL; also called ATL_6185; ATL6185) VH: EVQLVESGGGLVKPGGSLRLSCAASGFTFNKAWMSWVRQAPGKGLEWVGRIKSGIDAGTTDYAAPVKGRFTISRDDSKNTLYLQMNSLKTEDTAVYYCTPPPYYYYGLNVWGQGTTVTVSS VL: QSALTQPRSVSGSPGQSVTISCTGTSSDVGSYNLVSWYQQHPGKAPKLMIYEVNKRPSGVPDRFSGSKSGATASLTISGLQAEDEADYYCGSYAGTANVFGTGTKVTVL | – | – | – | EC50 [1]: 7.31 nM |
| ATL_0006377 (antibody, V domains shown, also called ATL_6377) VH: EVQLVESGGGLVKPGGSLRLSCAASGFTFNKAWMSWVRQAPGKGLEWVGRIKSGIDAGTTDYAAPVKGRFTISRDDSKNTLYLQMNSLKTEDTAVYYCVPSPYYYYYGLDVWGQGTTVTVSS VL: QSALTQPRSVSGSPGQSVTISCTGTSSDVGSYNLVSWYQQHPGKAPKLMIYEVNKRPSGVPDRFSGSKSGATASLTISGLQAEDEADYYCVSYAGTANVFGTGTKVTVL | – | – | – | EC50 [6]: 23.8 nM; binding result [7]: no binding (tested: less than 1 µM) |
| ATL_0006202 (antibody, IgG1, V domains shown, IgG1 format; also called ATL_6202) VH: EVQLVESGGGLVKPGGSLRLSCAASGFTFNKAWMSWVRQAPGKGLEWVGRIKSGIDAGTTDYAAPVKGRFTISRDDSKNTLYLQMNSLKTEDTAVYYCSPPPFYYYYGLDVWGQGTTVTVSS VL: QSALTQPRSVSGSPGQSVTISCTGTSSDVGSYNLVSWYQQHPGKAPKLMIYEVNKRPSGVPDRFSGSKSGATASLTISGLQAEDEADYYCVSYGGTENVFGTGTKVTVL | binds | – | 13.5 | – |
| ATL_0006205 (antibody, IgG1, V domains shown, IgG1 format; also called ATL_6205) VH: EVQLVESGGGLVKPGGSLRLSCAASGFTFNKAWMSWVRQAPGKGLEWVGRIKSGIDAGTTDYAAPVKGRFTISRDDSKNTLYLQMNSLKTEDTAVYWCVPPPYYYYYGLDVWGQGTTVTVSS VL: QSALTQPRSVSGSPGQSVTISCTGTSSDVGSYNLVSWYQQHPGKAPKLMIYEVNKRPSGVPDRFSGSKSGATASLTISGLQAEDEADYYCVSYAGTANVFGTGTKVTVL | binds | 13.4 | 16.4 | – |
| ATL_0006203 (antibody, V domains shown, expressed in IgG1 format; also called ATL_6203) VH: EVQLVESGGGLVKPGGSLRLSCAASGFTFNKAWMSWVRQAPGKGLEWVGRIKSGIDAGTTDYAAPVKGRFTISRDDSKNTLYLQMNSLKTEDTAVYYCIPSPYYYYYGLDVWGQGTTVTVSS VL: QSALTQPRSVSGSPGQSVTISCTGTSSDVGSYNLVSWYQQHPGKAPKLMIYEVNKRPSGVPDRFSGSKSGATASLTISGLQAEDEADYYCVSYAGTANVFGTGTKVTVL | binds | 8.91 | 8.72 | – |
| ATL_0006374 (antibody, V domains shown, also called ATL_6374; ATL 6374) VH: EVQLVESGGGLVKPGGSLRLSCAASGFTFNKAWMSWVRQAPGKGLEWVGRIKSGIDAGTTDYAAPVKGRFTISRDDSKNTLYLQMNSLKTEDTAVYWCVPPPYYYYYGLDVWGQGTTVTVSS VL: QSALTQPRSVSGSPGQSVTISCTGTSSDVGSYNLVSWYQQHPGKAPKLMIYEVNKRPSGVPDRFSGSKSGATASLTISGLQAEDEADYYCVSYGGTENVFGTGTKVTVL | binds | – | – | EC50 [6]: 31.1 nM |
| ATL_0006378 (antibody, V domains shown, also called ATL_6378; ATL 6378) VH: EVQLVESGGGLVKPGGSLRLSCAASGFTFNKAWMSWVRQAPGKGLEWVGRIKSGIDAGTTDYAAPVKGRFTISRDDSKNTLYLQMNSLKTEDTAVYYCVPSPYYYYYGLDVWGQGTTVTVSS VL: QSALTQPRSVSGSPGQSVTISCTGTSSDVGSYNLVSWYQQHPGKAPKLMIYEVNKRPSGVPDRFSGSKSGATASLTISGLQAEDEADYYCVSYGGTENVFGTGTKVTVL | – | – | – | EC50 [6]: 38.9 nM |
| ATL_0006199 (antibody, V domains shown, expressed in IgG1 format; also called ATL_6199) VH: EVQLVESGGGLVKPGGSLRLSCAASGFTFNKAWMSWVRQAPGKGLEWVGRIKSGIDAGTTDYAAPVKGRFTISRDDSKNTLYLQMNSLKTEDTAVYWCSPPPYYYYYGLDVWGQGTTVTVSS VL: QSALTQPRSVSGSPGQSVTISCTGTSSDVGSYNLVSWYQQHPGKAPKLMIYEVNKRPSGVPDRFSGSKSGATASLTISGLQAEDEADYYCGSYAGTANVFGTGTKVTVL | binds | 15 | 13.1 | – |
| ATL_0006200 (antibody, V domains shown, expressed in IgG1 format; also called ATL_6200) VH: EVQLVESGGGLVKPGGSLRLSCAASGFTFNKAWMSWVRQAPGKGLEWVGRIKSGIDAGTTDYAAPVKGRFTISRDDSKNTLYLQMNSLKTEDTAVYYCVPPPYYYYYGLDVWGQGTTVTVSS VL: QSALTQPRSVSGSPGQSVTISCTGTSSDVGSYNLVSWYQQHPGKAPKLMIYEVNKRPSGVPDRFSGSKSGATASLTISGLQAEDEADYYCGSYAGTANVFGTGTKVTVL | binds | 12.8 | 9.75 | – |
| ATL_0006375 (antibody, V domains shown, also called ATL_6375) VH: EVQLVESGGGLVKPGGSLRLSCAASGFTFNKAWMSWVRQAPGKGLEWVGRIKSGIDAGTTDYAAPVKGRFTISRDDSKNTLYLQMNSLKTEDTAVYYCVPPPYYYYYGLDVWGQGTTVTVSS VL: QSALTQPRSVSGSPGQSVTISCTGTSSDVGSYNLVSWYQQHPGKAPKLMIYEVNKRPSGVPDRFSGSKSGATASLTISGLQAEDEADYYCVSYGGTENVFGTGTKVTVL | – | – | – | EC50 [6]: 20.1 nM |
| ATL_0006204 (antibody, V domains shown, expressed in IgG1 format; also called ATL_6204) VH: EVQLVESGGGLVKPGGSLRLSCAASGFTFNKAWMSWVRQAPGKGLEWVGRIKSGIDAGTTDYAAPVKGRFTISRDDSKNTLYLQMNSLKTEDTAVYYCIPPPYYYYYGLDVWGQGTTVTVSS VL: QSALTQPRSVSGSPGQSVTISCTGTSSDVGSYNLVSWYQQHPGKAPKLMIYEVNKRPSGVPDRFSGSKSGATASLTISGLQAEDEADYYCVSFAGTANVFGTGTKVTVL | binds | 16.2 | 12.2 | – |
| ATL_0006376 (antibody, V domains shown, also called ATL_6376) VH: EVQLVESGGGLVKPGGSLRLSCAASGFTFNKAWMSWVRQAPGKGLEWVGRIKSGIDAGTTDYAAPVKGRFTISRDDSKNTLYLQMNSLKTEDTAVYYCVPPPFYYYYGLDVWGQGTTVTVSS VL: QSALTQPRSVSGSPGQSVTISCTGTSSDVGSYNLVSWYQQHPGKAPKLMIYEVNKRPSGVPDRFSGSKSGATASLTISGLQAEDEADYYCVSYGGTENVFGTGTKVTVL | – | – | – | EC50 [6]: 11.5 nM; binding result [7]: no binding (tested: less than 1 µM) |
